The target in test [1] is recombinant SARS-CoV-2 RBD (SARS-CoV-2, ancestral strain (assumed), UniProt P0DTC2). The test can be described thus: BLI.
In test [2] the target is SARS-CoV-2 WA.1 spike protein (V-PLEX COVID-19 Panel 24) (SARS-CoV-2 WA.1 (ancestral), UniProt P0DTC2, strain). The test can be described thus: electrochemiluminescence multiplex binding assay.

B1: 002-S21F2 full-length immunoglobulin G (IgG) (antibody, V domains shown)
VH: EVQLVQSGAEVKKPGESLKISCKASGYNFAYYWIGWVRQMPGKGLEWMGIIYPGDSDTRYSPSFQGQVTISADKSISTAYLQWSSLKASDTAMYYCARGEMTAVFGDYWGQGTLVTVSS
VL: DIQMTQSPSSLSASVGDRVTITCQASQDISNYLNWYQQKPGKAPKLLIYDASNLETGVPSRFSGSGSGTDFTLTISSLQPEDIATYYCQQYKILLTWTFGQGTKVEIK
In the case of B1, the binding result in test [1] and in test [2] was “binds” each time.

(Values after doi:10.1101/2022.05.13.491770 (bioRxiv, 2022).)
